In patent publication US20160108110A1 (Novartis, published 2016):

T1: Human ANGPTL4(26-406)-FLAG-His6-Avi (human, UniProt Q9BY76 24-406, biotin on the C-terminal Avi tag in the biotinylated preparations (immobilised form in SET, ELISA and Octet))
T1 construct: also called full-length human ANGPTL4; hANGPTL4
T1 sequence: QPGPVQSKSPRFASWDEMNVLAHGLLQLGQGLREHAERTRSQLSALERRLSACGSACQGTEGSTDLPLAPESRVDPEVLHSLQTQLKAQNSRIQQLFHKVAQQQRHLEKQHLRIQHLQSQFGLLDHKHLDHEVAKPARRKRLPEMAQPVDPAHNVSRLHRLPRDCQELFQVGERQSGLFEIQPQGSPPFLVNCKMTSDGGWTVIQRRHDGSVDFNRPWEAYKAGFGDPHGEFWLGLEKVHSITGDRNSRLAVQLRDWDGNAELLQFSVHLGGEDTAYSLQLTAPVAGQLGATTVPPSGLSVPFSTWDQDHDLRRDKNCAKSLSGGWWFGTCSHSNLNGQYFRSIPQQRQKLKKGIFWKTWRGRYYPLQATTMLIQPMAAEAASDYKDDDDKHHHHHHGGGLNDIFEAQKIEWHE

T2: Mouse ANGPTL4(26-410)-FLAG-His6-Avi (mouse, UniProt Q9Z1P8 24-410, biotin on the C-terminal Avi tag in the immobilised form)
T2 sequence: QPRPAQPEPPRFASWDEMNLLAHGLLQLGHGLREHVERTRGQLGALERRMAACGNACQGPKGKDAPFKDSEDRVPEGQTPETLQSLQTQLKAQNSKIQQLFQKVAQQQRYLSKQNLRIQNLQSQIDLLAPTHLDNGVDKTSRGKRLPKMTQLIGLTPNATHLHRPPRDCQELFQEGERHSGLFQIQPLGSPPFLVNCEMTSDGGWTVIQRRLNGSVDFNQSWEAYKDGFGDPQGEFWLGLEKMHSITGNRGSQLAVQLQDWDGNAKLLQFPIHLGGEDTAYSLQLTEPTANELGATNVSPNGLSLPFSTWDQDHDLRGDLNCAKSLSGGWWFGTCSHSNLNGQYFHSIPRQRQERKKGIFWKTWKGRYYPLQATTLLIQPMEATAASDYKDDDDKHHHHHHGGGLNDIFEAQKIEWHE

B1: MOR022765 (antibody, human IgG1, lambda, V domains shown)
VH: EVQLVQSGAEVKKPGESLKISCKGSGYSFSTYWISWVRQMPGKGLEWMGIIDPSSSDTRYSPSFQGQVTISADKSISTAYLQWSSLKASDTAMYYCARVYGYVYMDVWGQGTLVTVSS
VL: SYELTQPLSVSVALGQTARITCSGDNLGKKYAYWYQQKPGQAPVLVIYDKTKRPSGIPERFSGSNSGNTATLTISRAQAGDEADYYCASYDWYSSSYVFGGGTKLTVLG
notes: human IgG1
B2: MOR021792 (antibody, human IgG1, lambda, V domains shown)
VH: QVQLLESGGGLVQPGGSLRLSCAASGFTFSDYAMDWVRQAPGKGLEWVSKISYDGSYTYYADSVKGRFTISRDNSKNTLYLQMNSLRAEDTAVYYCARPSMSYYIIPAGFDVWGQGTLVTVSS
VL: DIELTQPPSVSVSPGQTASITCSGDALGVKRASWYQQKPGQAPVLVIYKDNNRPSGIPERFSGSNSGNTATLTISGTQAEDEADYYCSVRTWSMNLYVFGGGTKLTVLG
B3: MOR021798 (antibody, human IgG1, lambda, V domains shown)
VH: QVQLLESGGGLVQPGGSLRLSCAASGFTFSDYALHWVRQAPGKGLEWVSRISYMGSSTYYADSVKGRFTISRDNSKNTLYLQMNSLRAEDTAVYYCAREHYYSSPMGGVAVDNWGQGTLVTVSS
VL: DIVLTQPPSVSGAPGQRVTISCSGSSSNIGYNTVSWYQQLPGTAPKLLIYSNNIRPSGVPDRFSGSKSGTSASLAITGLQAEDEADYYCSSWDFLIKSLVFGGGTKLTVLG
notes: human IgG1

Tests used:
[1] = molecular target: T1, Human ANGPTL4(26-406)-FLAG-His6-Avi; assay: SET assay (solution equilibrium titration, MSD), IgG
Method: (§1) SET assays were performed as follows. In a 96-well polypropylene plate, a constant concentration of ANGPTL4 antibody was mixed with different concentrations of non-biotinylated human, cyno, mouse, or rat full-length ANPGLT4 protein, or human ANGPTL4 N-terminal domain protein (5-fold serial dilution) and incubated at 22° C. for 14 hours with constant shaking (300 rpm). On a pre-blocked 384-well streptavidin-coated Meso Scale Discovery (MSD) plate biotinylated ANGPTL4 (full-length human, cyno, mouse, or rat ANGPTL4, or human ANGPTL4 N-terminal domain) protein (1 nM, 15 μL per well) was immobilized and washed thereafter.
(§2) The equilibrium binding reactions (15 μL per well) were applied to the MSD plate with immobilized ANGPTL4 and incubated for 20 min at 22° C. The unbound material was removed by washing the plate 3 times with wash buffer, and the captured antibody was detected by adding Sulfo-tagged goat anti-human IgG (Meso Scale Discovery). After washing MSD read buffer T was added and the plate was developed using a Sector Imager 6000 (Meso Scale Discovery). The data were transferred to Microsoft Excel for analysis and plotted using GraphPad Prism v6. The KD values were determined by fitting the data to the following equation: […]
(§3) where Bₘₐₓ is the signal when no ANGPTL4 protein is present in solution, CAb is the constant concentration of ANGPTL4 antibody in solution, CAg is the concentration of ANGPTL4 in solution, and KD is the equilibrium dissociation constant.

[2] = molecular target: T1, Human ANGPTL4(26-406)-FLAG-His6-Avi; assay: cell-based or functional assay
[3] = molecular target: T2, Mouse ANGPTL4(26-410)-FLAG-His6-Avi; assay: SET assay (solution equilibrium titration, MSD), IgG
Method: as §1, §2, §3

[4] = molecular target: T1, Human ANGPTL4(26-406)-FLAG-His6-Avi; assay: ForteBio Octet, biotinylated antigen on streptavidin sensor, antibody in solution
Method: Dissociation constants (KD) were determined for selected antibodies of the invention by using an Octet (ForteBio) kinetic binding assay. ForteBio 10× Kinetics Buffer (ForteBio, catalog number 18-5032) was diluted 10-fold with DPBS (Life Technologies, catalog number 14190-136), and the resulting solution was added (0.2 ml per well) to a 96-well plate (Greiner, catalog number 65520). Streptavidin sensors (ForteBio, catalog number 18-5020) were immersed in the solution and equilibrated for at least 10 min at room temperature. In a second 96-well plate (Greiner, catalog number 65520), sensors were washed in 1× Kinetics buffer, and then immersed in 200 ul of 25 nM biotinylated human ANGPTL4 or a biotinylated reference protein (for background substraction) for 1000 sec […] at room temperature. The sensors were then washed in 1× Kinetics buffer for 120 sec, and immersed in 200 ul of ANGPTL4 antibody diluted in 1× Kinetics buffer at various concentrations (serial 2-fold dilutions ranging from 25 nM to 0.4 nM), and antibody association was monitored for 480 seconds. The sensors were then transferred to a well containing 200 ul 1× Kinetics buffer, and antibody dissociation was monitored for 1200 seconds. Background-corrected association and dissociation curves were globally fitted by Octet Software (ForteBio) to generate association (kₒₙ) and dissociation (koff) rate constants, which in turn were used to calculate equilibrium dissociation constants (KD).

| Kd [1] [nM] | Reversal of human ANGPTL4 inhibition of human LPL EC50 [2] [nM] | Kd [3] [nM] | Kd [4] [nM] | koff [4] [s⁻¹] | kon [4] [M⁻¹ s⁻¹] | Binder |
| --- | --- | --- | --- | --- | --- | --- |
| 0.01 | – | – | – | – | – | B1 |
| 0.01 | 1 | 0.005 | 0.184 | 6.5e-05 | 250000 | B2 |
| 0.093 | 2 | 0.517 | 0.444 | 9.9e-05 | 220000 | B3 |
